Paper PMC7655567

Substrate: O=C(O)CO
Experiment: purified protein
Details: 2 mM FMN, 5 mM MgSO4, 0.5 mM EDTA, 3 mM phenylhydrazine; measured in parallel with RcGOX

B1: AtGOX1 (Arabidopsis thaliana) (protein)
chain: MEITNVTEYDAIAKQKLPKMVYDYYASGAEDQWTLQENRNAFARILFRPRILIDVSKIDMTTTVLGFKISMPIMVAPTAMQKMAHPDGEYATARAASAAGTIMTLSSWATSSVEEVASTGPGIRFFQLYVYKNRNVVEQLVRRAERAGFKAIALTVDTPRLGRRESDIKNRFTLPPNLTLKNFEGLDLGKMDEANDSGLASYVAGQIDRTLSWKDVQWLQTITKLPILVKGVLTGEDARIAIQAGAAGIIVSNHGARQLDYVPATISALEEVVKATQGRIPVFLDGGVRRGTDVFKALALGASGIFIGRPVVFSLAAEGEAGVRKVLQMLRDEFELTMALSGCRSLKEISRNHITTEWDTPRPSARL
For B1, which Km is on record?
Its Km is 390 ± 100 µM.

And the kcat?
The kcat was 1.04 ± 0.237 s⁻¹.
